Laboratory results taken from PMC6892150, “Dimerization of MORC2 through its C-terminal coiled-coil domain enhances chromatin dynamics and promotes DNA repair” (Cell Communication and Signaling : CCS, 2019).

Target: the molecule itself
Assay: cross-linking; Flag-MORC2 purified from HEK293T, chemical cross-linking, immunoblotting

B1: microrchidia family CW-type zinc finger protein 2 (MORC2), full length, Flag- or HA-tagged (natural protein, human, UniProt Q9Y6X9 1-1032, looked up)
chain: MAFTNYSSLNRAQLTFEYLHTNSTTHEFLFGALAELVDNARDADATRIDIYAERREDLRGGFMLCFLDDGAGMDPSDAASVIQFGKSAKRTPESTQIGQYGNGLKSGSMRIGKDFILFTKKEDTMTCLFLSRTFHEEEGIDEVIVPLPTWNARTREPVTDNVEKFAIETELIYKYSPFRTEEEVMTQFMKIPGDSGTLVIIFNLKLMDNGEPELDIISNPRDIQMAETSPEGTKPERRSFRAYAAVLYIDPRMRIFIHGHKVQTKRLSCCLYKPRMYKYTSSRFKTRAEQEVKKAEHVARIAEEKAREAESKARTLEVRLGGDLTRDSRVMLRQVQNRAITLRREADVKKRIKEAKQRALKEPKELNFVFGVNIEHRDLDGMFIYNCSRLIKMYEKVGPQLEGGMACGGVVGVVDVPYLVLEPTHNKQDFADAKEYRHLLRAMGEHLAQYWKDIAIAQRGIIKFWDEFGYLSANWNQPPSSELRYKRRRAMEIPTTIQCDLCLKWRTLPFQLSSVEKDYPDTWVCSMNPDPEQDRCEASEQKQKVPLGTFRKDMKTQEEKQKQLTEKIRQQQEKLEALQKTTPIRSQADLKKLPLEVTTRPSTEEPVRRPQRPRSPPLPAVIRNAPSRPPSLPTPRPASQPRKAPVISSTPKLPALAAREEASTSRLLQPPEAPRKPANTLVKTASRPAPLVQQLSPSLLPNSKSPREVPSPKVIKTPVVKKTESPIKLSPATPSRKRSVAVSDEEEVEEEAERRKERCKRGRFVVKEEKKDSNELSDSAGEEDSADLKRAQKDKGLHVEVRVNREWYTGRVTAVEVGKHVVRWKVKFDYVPTDTTPRDRWVEKGSEDVRLMKPPSPEHQSLDTQQEGGEEEVGPVAQQAIAVAEPSTSECLRIEPDTTALSTNHETIDLLVQILRNCLRYFLPPSFPISKKQLSAMNSDELISFPLKEYFKQYEVGLQNLCNSYQSRADSRAKASEESLRTSERKLRETEEKLQKLRTNIVALLQKVQEDIDINTDDELDAYIEDLITKGD
notes: MORC2, human, full length (1032 residues by the printed numbering 950-1032 for the C-terminus); Flag-MORC2 and HA-MORC2 are two differently tagged copies of the same full-length protein; each chain carries one tag only; Written as one molecule because they are co-precipitated with each other to show self-association; Flag-MORC2 was the copy purified for cross-linking; HA-MORC2 was the copy …
  stoichiometry N: 2
